Data from patent US20120039810, “APTAMER-CONTAINING COMPOSITIONS AND METHODS FOR TARGETING E-SELECTIN” (published 2012).

Key:
[1] = target: T1, E-selectin on ES-Endo cells (Tet-on HMVEC) (UniProt P16581 P16581:22-610); assay: cell_activity; inhibition of HL-60 adhesion to ES-Endo, 4 C; 80% at 100 nM
T1 sequence: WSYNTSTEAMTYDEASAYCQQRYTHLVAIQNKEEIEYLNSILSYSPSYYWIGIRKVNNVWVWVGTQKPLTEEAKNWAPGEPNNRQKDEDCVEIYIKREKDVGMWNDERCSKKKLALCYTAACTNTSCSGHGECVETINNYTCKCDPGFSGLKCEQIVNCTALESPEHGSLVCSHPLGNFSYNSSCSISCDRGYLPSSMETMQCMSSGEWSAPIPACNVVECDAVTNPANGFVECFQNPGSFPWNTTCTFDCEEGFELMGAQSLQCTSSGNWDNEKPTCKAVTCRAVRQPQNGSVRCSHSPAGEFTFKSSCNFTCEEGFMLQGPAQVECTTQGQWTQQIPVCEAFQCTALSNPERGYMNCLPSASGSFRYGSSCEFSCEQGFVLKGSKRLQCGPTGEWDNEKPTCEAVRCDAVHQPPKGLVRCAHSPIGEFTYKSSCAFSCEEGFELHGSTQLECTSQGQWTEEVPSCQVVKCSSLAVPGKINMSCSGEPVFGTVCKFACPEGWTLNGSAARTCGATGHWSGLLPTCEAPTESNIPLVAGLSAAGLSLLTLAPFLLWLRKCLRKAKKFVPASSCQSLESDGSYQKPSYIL
Procedure: On the basis of specific binding of ESTA-1 to E-selectin, a study was done to determine the effect of ESTA-1 on adhesion of sLe^X positive cells to endothelial cells. Confluent E-selectin expressing ES-Endo cells were incubated with doxycycline for 5 hours followed by ESTA-1 (50 nM, 100 nM) for 20 minutes. HL-60 cells a human promyelomonocytic cell line, or cells from two breast cancer cell lines (MDA-MB-231 and MDA-MB-468: 10^5 cells) suspended in RPMI containing 1% FBS were added to ES-Endo and incubated at 4° C. for 30 minutes with mild agitation. The unbound cells were washed off with RPMI containing 1% FBS. The number of cells that adhered to the ES-Endo was counted on at least 3 random areas using a light microscope (final magnification 100×) and expressed as the mean of triplicate experiments. […] HL-60 cell adhesion to ES-Endo increased by 5-fold when E-selectin expression was induced by doxycycline (FIG. 12A). Pretreatment of the E-selectin expressing ES-Endo with ESTA-1 inhibited HL-60 adhesion by 80% at 100 nM ESTA-1 (FIG. 12A). […] Lastly, we tested cytotoxicity associated with ESTA-1 treatment in ES-Endo cells. ES-Endo cells were first incubated with doxycycline for 5 hours and then with increasing concentration of ESTA-1 (up to 200 nM) for 48 hours. MTT assay was performed to test cell viability.

L-selectin = target: T2, L-selectin (Homo sapiens, UniProt P14151 P14151:39-332); assay: EMSA; binding not detectable under the same conditions
T2 sequence: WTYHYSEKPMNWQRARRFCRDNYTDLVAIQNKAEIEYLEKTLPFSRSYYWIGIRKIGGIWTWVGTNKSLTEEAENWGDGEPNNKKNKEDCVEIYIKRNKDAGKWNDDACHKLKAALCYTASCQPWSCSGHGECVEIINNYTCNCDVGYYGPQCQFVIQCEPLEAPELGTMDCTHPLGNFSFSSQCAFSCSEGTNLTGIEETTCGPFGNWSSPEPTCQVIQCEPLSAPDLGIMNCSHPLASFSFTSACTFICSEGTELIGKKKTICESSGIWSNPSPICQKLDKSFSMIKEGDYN
Text: Protein-bound TA and unbound TA were quantified using ImageJ software. The binding curves were generated assuming a single binding site curve fits using the Graph Pad Prism software.
To evaluate the binding affinity of ESTA-1 to all selectins, an electrophoretic mobility shift assay (EMSA) was utilized. To determine the binding constant, fixed amounts of ESTA-1 was mixed with increasing amounts of recombinant protein (E-, P-, and L-selectin). ESTA-1 (4.6 pmoles) and recombinant human selectin protein (up to 19 pmoles) were incubated and subjected to electrophoresis at 4° C. The gels were stained with SYBR Gold nucleic acid stain and densitometric analysis of the unbound ESTA-1 was plotted using E-selectin or P-selectin recombinant protein. […] As expected, the amounts of ESTA-1/E-selectin complexes reached saturation at a molar ratio of 1:1, when both of the binding molecules are at a concentration of 500 nM. Based on the densitometric analysis, the binding constant calculated for the ESTA-1 binding to E-selectin was 47 nM (FIG. 11A). […] ESTA-1 binding to L-selectin was not detectable under the same conditions. […] To further validate the binding affinity of ESTA-1 under biological conditions, different concentrations of ESTA-1 (50-200 nM) were incubated with ES-Endo cells induced with doxycycline. […] ESTA-1 binding was analyzed by fluorescent imaging.

P-selectin = P-selectin (Homo sapiens, UniProt P16109 P16109:42-771); assay: EMSA; estimated; PBS with Ca2+ and Mg2+, 5 mM MgCl2, 1% NP40
Chain of P-selectin (P16109 42-771, one chain of several): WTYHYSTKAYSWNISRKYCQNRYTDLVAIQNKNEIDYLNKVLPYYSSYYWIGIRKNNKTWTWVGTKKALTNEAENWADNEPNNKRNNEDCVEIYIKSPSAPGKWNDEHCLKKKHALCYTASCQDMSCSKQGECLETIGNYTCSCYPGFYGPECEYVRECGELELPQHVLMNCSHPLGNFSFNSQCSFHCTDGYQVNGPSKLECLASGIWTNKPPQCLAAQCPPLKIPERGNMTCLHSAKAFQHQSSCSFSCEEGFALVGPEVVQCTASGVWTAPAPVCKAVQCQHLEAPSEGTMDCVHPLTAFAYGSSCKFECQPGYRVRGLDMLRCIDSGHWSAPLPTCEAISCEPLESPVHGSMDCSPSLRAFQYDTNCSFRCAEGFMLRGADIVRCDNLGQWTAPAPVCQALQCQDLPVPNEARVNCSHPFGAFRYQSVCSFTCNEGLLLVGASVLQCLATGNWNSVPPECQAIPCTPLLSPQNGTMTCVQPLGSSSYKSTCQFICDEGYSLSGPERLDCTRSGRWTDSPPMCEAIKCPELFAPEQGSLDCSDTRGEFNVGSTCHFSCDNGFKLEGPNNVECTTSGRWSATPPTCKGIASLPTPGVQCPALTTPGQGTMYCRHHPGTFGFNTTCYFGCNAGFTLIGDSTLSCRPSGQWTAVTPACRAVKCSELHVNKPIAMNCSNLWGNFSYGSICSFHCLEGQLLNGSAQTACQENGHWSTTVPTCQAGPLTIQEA
Procedure: Equal amounts of ESTA-1 (4.6 pmoles) were incubated with increasing concentrations of the recombinant selectin proteins (0-19 pmoles) in a total volume of 10.5 μl of PBS supplemented with Ca2+ and Mg2+, 5 mM MgCl2, and 1% NP40 at room temperature for 45 minutes. The reaction mixtures were loaded onto 6% polyacrylamide tris borate gels and run at 100 V for 90 minutes at 4° C. The gel was stained with SYBR Gold nucleic acid staining dye and visualized using the Fluor Chem 8800 chemimager (Alpha Innotech). Protein-bound TA and unbound TA were quantified using ImageJ software. The binding curves were generated assuming a single binding site curve fits using the Graph Pad Prism software.
To evaluate the binding affinity of ESTA-1 to all selectins, an electrophoretic mobility shift assay (EMSA) was utilized. To determine the binding constant, fixed amounts of ESTA-1 was mixed with increasing amounts of recombinant protein (E-, P-, and L-selectin). ESTA-1 (4.6 pmoles) and recombinant human selectin protein (up to 19 pmoles) were incubated and subjected to electrophoresis at 4° C. The gels were stained with SYBR Gold nucleic acid stain and densitometric analysis of the unbound ESTA-1 was plotted using E-selectin or P-selectin recombinant protein. […] Based on the densitometric analysis, the binding constant calculated for the ESTA-1 binding to E-selectin was 47 nM (FIG. 11A). […]

B1: ESTA-1 (TA-1) (ssDNA)
DNA: CGCTCGGATCGATAAGCTTCGATCCCACTCTCCCGTTCACTTCTCCTCACGTCACGGATCCTCTAGAGCACTG
modifications: 5'-monothiophosphate (Rp) on all dA except in primer-binding region
- IC50 [1]: ~0.063 µM
- binding result (L-selectin): no binding
- Kd (P-selectin): ~13 µM
